We go through three molecules from publication PMC10397247.

One assay concerns the target T1, 4H462-bA.
T1 chain: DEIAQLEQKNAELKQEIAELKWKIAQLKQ
The experiment in a line: two-hybrid library CCNG1.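 Further: natural log of median RNA to DNA barcode read ratio; higher means stronger binding.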 The following applies: mean of both orientations.

The next assay concerns the target T2, 4H568-bA.
T2 chain: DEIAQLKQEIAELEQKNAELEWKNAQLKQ
The assay can be described thus: two-hybrid library CCNG1.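 Further: natural log of median RNA to DNA barcode read ratio; higher means stronger binding.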

The target in another assay is T3, 4H797-bA.
T3 chain: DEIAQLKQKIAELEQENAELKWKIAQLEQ
The assay can be described thus: two-hybrid library CCNG1.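 Further: natural log of median RNA to DNA barcode read ratio; higher means stronger binding.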

The next assay concerns the target T4, 4H338-bA.
T4 chain: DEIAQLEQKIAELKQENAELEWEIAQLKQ
The experiment in a line: two-hybrid library CCNG1.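 Further: natural log of median RNA to DNA barcode read ratio; higher means stronger binding.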

A further assay deals with T5, 4H72-bA.
T5 chain: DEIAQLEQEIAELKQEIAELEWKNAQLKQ
The experiment in a line: two-hybrid library CCNG1.

In a further assay the target is T6, 4H967-bA.
T6 chain: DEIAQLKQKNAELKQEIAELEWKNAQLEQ
The experiment in a line: two-hybrid library CCNG1.

The target in another assay is T7, 4H687-bA.
T7 chain: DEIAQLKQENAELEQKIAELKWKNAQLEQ
The assay can be described thus: two-hybrid library CCNG1.

For a further assay, the target named is T8, 4H331-bA.
T8 chain: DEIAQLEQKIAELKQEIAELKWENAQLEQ
The assay can be described thus: two-hybrid library CCNG1.

In another assay the target is T9, 4H3855-bA.
T9 chain: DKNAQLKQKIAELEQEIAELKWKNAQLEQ
The experiment in a line: two-hybrid library CCNG1.

The target of another assay is T10, 4H3843-bA.
T10 chain: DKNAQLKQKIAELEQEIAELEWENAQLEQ
The assay can be described thus: two-hybrid library CCNG1.

Another assay has as its target T11, 4H4001-bA.
T11 chain: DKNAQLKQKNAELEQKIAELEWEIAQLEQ
The experiment in a line: two-hybrid library CCNG1.

Another assay addresses T12, 4H908-bA.
T12 chain: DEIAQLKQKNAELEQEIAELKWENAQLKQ
The assay can be described thus: two-hybrid library CCNG1.

For the next assay, the target named is T13, 4H3354-bA.
T13 chain: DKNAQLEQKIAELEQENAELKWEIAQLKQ
The assay can be described thus: two-hybrid library CCNG1.

In a further assay the target is T14, 4H607-bA.
T14 chain: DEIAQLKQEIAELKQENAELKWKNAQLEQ
The assay can be described thus: two-hybrid library CCNG1.

The next assay concerns the target T15, 4H717-bA.
T15 chain: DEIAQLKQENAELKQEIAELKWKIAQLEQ
The experiment in a line: two-hybrid library CCNG1.

In a further assay the target is T16, 4H918-bA.
T16 chain: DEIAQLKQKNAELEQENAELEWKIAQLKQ
The experiment in a line: two-hybrid library CCNG1.

The next assay deals with T17, 4H3427-bA.
T17 chain: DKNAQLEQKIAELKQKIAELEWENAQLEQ
The experiment in a line: two-hybrid library CCNG1.

For the next assay, the target named is T18, 4H953-bA.
T18 chain: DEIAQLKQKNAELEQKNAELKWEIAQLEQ
The experiment in a line: two-hybrid library CCNG1.

In a further assay the target is T19, 4H370-bA.
T19 chain: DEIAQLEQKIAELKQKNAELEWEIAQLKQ
The experiment in a line: two-hybrid library CCNG1.

The target in a further assay is T20, 4H754-bA.
T20 chain: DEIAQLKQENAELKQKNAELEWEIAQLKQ
The assay can be described thus: two-hybrid library CCNG1.

A further assay addresses T21, 4H883-bA.
T21 chain: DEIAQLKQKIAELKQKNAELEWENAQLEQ
The assay can be described thus: two-hybrid library CCNG1.

For a further assay, the target named is T22, 4H3606-bA.
T22 chain: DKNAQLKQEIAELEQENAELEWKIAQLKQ
The assay can be described thus: two-hybrid library CCNG1.

Another assay deals with T23, 4H3782-bA.
T23 chain: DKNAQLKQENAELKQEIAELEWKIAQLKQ
The experiment in a line: two-hybrid library CCNG1.

A further assay deals with T24, 4H454-bA.
T24 chain: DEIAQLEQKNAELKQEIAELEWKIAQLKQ
The assay can be described thus: two-hybrid library CCNG1.

The target of the next assay is T25, 4H730-bA.
T25 chain: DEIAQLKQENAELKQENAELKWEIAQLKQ
The experiment in a line: two-hybrid library CCNG1.

Another assay has as its target T26, 4H3364-bA.
T26 chain: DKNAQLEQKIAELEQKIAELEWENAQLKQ
The experiment in a line: two-hybrid library CCNG1.

Another assay addresses T27, 4H796-bA.
T27 chain: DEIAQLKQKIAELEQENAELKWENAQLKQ
The assay can be described thus: two-hybrid library CCNG1.

The target in the next assay is T28, 4H949-bA.
T28 chain: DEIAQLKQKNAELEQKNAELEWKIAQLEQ
The experiment in a line: two-hybrid library CCNG1.

The target in the next assay is T29, 4H3297-bA.
T29 chain: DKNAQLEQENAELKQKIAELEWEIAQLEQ
The assay can be described thus: two-hybrid library CCNG1.

The target in another assay is T30, 4H2931-bA.
T30 chain: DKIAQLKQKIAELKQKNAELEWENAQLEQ
The experiment in a line: two-hybrid library CCNG1.

The target in a further assay is T31, 4H2859-bA.
T31 chain: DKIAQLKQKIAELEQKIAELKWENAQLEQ
The assay can be described thus: two-hybrid library CCNG1.

Another assay concerns the target T32, 4H3041-bA.
T32 chain: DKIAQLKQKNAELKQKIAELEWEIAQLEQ
The experiment in a line: two-hybrid library CCNG1.

The target in a further assay is T33, 4H932-bA.
T33 chain: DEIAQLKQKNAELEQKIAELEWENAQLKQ
The assay can be described thus: two-hybrid library CCNG1.

The target of a further assay is T34, 4H56-bA.
T34 chain: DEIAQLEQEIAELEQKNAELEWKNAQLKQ
The assay can be described thus: two-hybrid library CCNG1.

The next assay deals with T35, 4H3381-bA.
T35 chain: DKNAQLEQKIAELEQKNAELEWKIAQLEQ
The experiment in a line: two-hybrid library CCNG1.

For a further assay, the target named is T36, 4H349-bA.
T36 chain: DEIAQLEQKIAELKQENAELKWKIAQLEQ
The assay can be described thus: two-hybrid library CCNG1.

In another assay the target is T37, P6-AA-1HGe-M.
T37 chain: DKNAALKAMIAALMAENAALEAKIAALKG
The assay can be described thus: two-hybrid library CCmax. The following applies: mean of both orientations.

The next assay has as its target T38, P6-AA-1HGe-R.
T38 chain: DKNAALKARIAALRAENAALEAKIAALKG
The assay can be described thus: two-hybrid library CCmax. The conditions noted are these: mean of both orientations.

The target in another assay is T39, P6-AA-1HGe-T.
T39 chain: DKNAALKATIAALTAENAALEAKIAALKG
The experiment in a line: two-hybrid library CCmax. The following applies: mean of both orientations.

Another assay addresses T40, P6-AA-1HGe-W.
T40 chain: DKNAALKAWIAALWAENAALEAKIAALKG
The assay can be described thus: two-hybrid library CCmax. The conditions noted are these: mean of both orientations.

Another assay has as its target T41, P6-AA-1HGe-S.
T41 chain: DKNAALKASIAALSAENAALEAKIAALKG
The experiment in a line: two-hybrid library CCmax. The following applies: mean of both orientations.

The target in a further assay is T42, P6-AA-1HGe-A.
T42 chain: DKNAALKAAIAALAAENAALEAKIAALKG
The experiment in a line: two-hybrid library CCmax. The conditions noted are these: mean of both orientations.

B1: 4H331-bA (peptide)
chain: DEIAQLEQKIAELKQEIAELKWENAQLEQ
As to B1, the interaction score with 4H462-bA was -0.426; with 4H568-bA it was -0.11; in the assay with 4H797-bA, -0.644; with 4H338-bA it was -0.867; in the assay with 4H72-bA it was 1.23; with 4H967-bA it was -1.16. Further, the interaction score was -0.899 with 4H687-bA; -0.244 with 4H331-bA; 0.317 with 4H3855-bA; 0.72 with 4H3843-bA; 0.0797 with 4H4001-bA; -1.83 with 4H908-bA. Further, the interaction score with 4H3354-bA was -0.749; with 4H607-bA it was -1.42; with 4H717-bA, -1.06; with 4H918-bA it was -0.884; with 4H3427-bA, 0.677; with 4H953-bA, -1.28. Further, the interaction score with 4H370-bA was -0.724; in the assay with 4H754-bA it was -0.893; in the assay with 4H883-bA, -0.483; with 4H3606-bA, -0.929; with 4H3782-bA, -0.0209; with 4H454-bA, 0.885.

B2: 4H2859-bA (peptide)
chain: DKIAQLKQKIAELEQKIAELKWENAQLEQ
Regarding B2, the interaction score was -1.15 with 4H730-bA; 0.621 with 4H3364-bA; -0.855 with 4H796-bA; -1.6 in the assay with 4H949-bA; -0.389 with 4H3297-bA; -0.145 with 4H2931-bA. In addition, the interaction score in the assay with 4H2859-bA is 0.951; with 4H3041-bA, 0.532; with 4H932-bA, -0.912; with 4H56-bA, 0.529; with 4H3381-bA, -1.02; with 4H349-bA, -1.25.

B3: P5-AA-1HGe-H (peptide)
chain: DENAALEAHIAALHAKNAALKAEIAALEG
As for B3, the interaction score with P6-AA-1HGe-M is 1.95; with P6-AA-1HGe-R it was 1.63; with P6-AA-1HGe-T, 1.88; with P6-AA-1HGe-W it was 0.42; with P6-AA-1HGe-S it was 1.02; with P6-AA-1HGe-A it was 1.88.
